Assay results taken from article PMC12654856, “Exploring the Scope of Functionalized N-Acylneuraminic Acid β-Methyl Glycosides as Inhibitors of Neisseria meningitidis CMP-Sialic Acid Synthetase” (Molecules, 2025).

Columns and labels:
[1] = tested on: Nc1ccn([C@@H]2O[C@H](COP(=O)(O)OP(=O)(O)OP(=O)(O)O)[C@@H](O)[C@H]2O)c(=O)n1; assay: purified protein; details: Mg2+ CTP binds prior to Neu5Ac
[2] = tested on: CC(=O)N[C@H]1[C@H]([C@H](O)[C@H](O)CO)OC(O)(C(=O)O)C[C@@H]1O; assay: purified protein; details: Mg2+ active site; binds after CTP

“NmB CMP-sialic acid synthetase (CSS) (Neisseria meningitidis MC58)” showed a Km [1] of 22 µM and a Km [2] of 37 µM.
